Experimental data published in PMC11648230, “Structure–function analysis of tRNA t^6A-catalysis, assembly, and thermostability of Aquifex aeolicus TsaD2B2 tetramer in complex with TsaE” (The Journal of Biological Chemistry, 2024).
Each block holds one binder with its values, some of them ahead of it.

Key:
[1] = target: T1, Thermotoga maritima TsaDB dimer variant (Thermotoga maritima, UniProt Q9WXZ2 1-327; Q9WZX7 2-206, E20A | D21A | L22A | E24A | S26A | Y27A | T28A | E30A | K31A); test: native gel or EMSA; native agarose-glycine gel (1.6%), 15 μg TsaD2B2 or variant and two-fold TsaE; gel and samples with 1 mM ATP and 2 mM MgCl2; conditions: both partners purified
T1 construct: TsaD, Thermotoga maritima, UniProt Q9WXZ2; TsaB, Thermotoga maritima, UniProt Q9WZX7; Preformed complex of m11 and m13; also called T. maritima TsaDB; TmTsaDB; source: E. coli BL21 (DE3) or Rosetta pLysS, co-expressed, purified (Ni-NTA, SEC); copies: 1 + 1
T1 sequence (Q9WXZ2 whole entry, stated change not applied, one chain of several): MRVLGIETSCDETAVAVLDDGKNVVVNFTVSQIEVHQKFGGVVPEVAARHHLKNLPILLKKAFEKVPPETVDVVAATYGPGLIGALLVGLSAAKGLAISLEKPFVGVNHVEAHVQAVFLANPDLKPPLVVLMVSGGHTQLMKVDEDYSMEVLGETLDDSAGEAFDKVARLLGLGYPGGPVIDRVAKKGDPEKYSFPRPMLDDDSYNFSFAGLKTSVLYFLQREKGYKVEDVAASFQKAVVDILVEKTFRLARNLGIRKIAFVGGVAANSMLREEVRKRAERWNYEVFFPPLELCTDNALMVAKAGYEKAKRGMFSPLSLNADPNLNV

[2] = target: the molecule itself; test: SEC; co-purified TsaD–TsaB complexes and variants; elution profiles compared with one another (tetramer against dimer); Superdex 200, after Ni-NTA

binding result [1]: binds
B1: Aquifex aeolicus TsaE (enzyme, UniProt O67011 1-133, looked up)
chain: MELLKEVILESEEDTYKLAEEIAQLLKGSEVICLRGTLGAGKTTFVKALAKALKVKNPSAVRSPTFTLVNEYETDKGKLIHIDLYRVPDFDYSEFIGEGILAVEWEERDKPCDIILEIEILDENKRKVRIYRK
notes: TsaE, Aquifex aeolicus, UniProt O67011; Monomer by SEC; also called AaTsaE; YjeE; source: E. coli BL21 (DE3) or Rosetta pLysS, purified (Ni-NTA, SEC)

B2: Thermotoga maritima TsaB (natural protein)
chain: NVLALDTSQRIRIGLRKGEDLFEISYTGEKKHAEILPVVVKKLLDELDLKVKDLDVVGVGIGPGGLTGLRVGIATVVGLVSPYDIPVAPLNSFEMTAKSCPADGVVLVARRARKGYHYCAVYLKDKGLNPLKEPSVVSDEELEEITKEFSPKIVLKDDLLISPAVLVEESERLFREKKTIHYYEIEPLYLQKSIAELNWEKKKRG
notes: TsaB, Thermotoga maritima, UniProt Q9WZX7; also called TmTsaB; source: E. coli BL21 (DE3) or Rosetta pLysS, co-expressed with TsaD (pET21a–BC14), purified (Ni-NTA, SEC)
binding result [2]: binds
